Data published in IntAct's records for PubMed 22940691.

B1: Endoglin (Homo sapiens), P17813 (parent)
chain: MDRGTLPLAVALLLASCSLSPTSLAETVHCDLQPVGPERGEVTYTTSQVSKGCVAQAPNAILEVHVLFLEFPTGPSQLELTLQASKQNGTWPREVLLVLSVNSSVFLHLQALGIPLHLAYNSSLVTFQEPPGVNTTELPSFPKTQILEWAAERGPITSAAELNDPQSILLRLGQAQGSLSFCMLEASQDMGRTLEWRPRTPALVRGCHLEGVAGHKEAHILRVLPGHSAGPRTVTVKVELSCAPGDLDAVLILQGPPYVSWLIDANHNMQIWTTGEYSFKIFPEKNIRGFKLPDTPQGLLGEARMLNASIVASFVELPLASIVSLHASSCGGRLQTSPAPIQTTPPKDTCSPELLMSLIQTKCADDAMTLVLKKELVAHLKCTITGLTFWDPSCEAEDRGDKFVLRSAYSSCGMQVSASMISNEAVVNILSSSSPQRKKVHCLNMDSLSFQLGLYLSPHFLQASNTIEPGQQSFVQVRVSPSVSEFLLQLDSCHLDLGPEGGTVELIQGRAAKGNCVSLLSPSPEGDPRFSFLLHFYTVPIPKTGTLSCTVALRPKTGSQDQEVHRTVFMRLNIISPDLSGCTSKGLVLPAVLGITFGAFLIGALLTAALWYIYSHTRSPSKREPVVAVAAPASSESSSTNHSIGSTQSTPCSTSSMA

Variants of: B1
Conditions: with arrb2_human ARRB2, P32121
Sequence of arrb2_human ARRB2, P32121 (P32121 whole entry): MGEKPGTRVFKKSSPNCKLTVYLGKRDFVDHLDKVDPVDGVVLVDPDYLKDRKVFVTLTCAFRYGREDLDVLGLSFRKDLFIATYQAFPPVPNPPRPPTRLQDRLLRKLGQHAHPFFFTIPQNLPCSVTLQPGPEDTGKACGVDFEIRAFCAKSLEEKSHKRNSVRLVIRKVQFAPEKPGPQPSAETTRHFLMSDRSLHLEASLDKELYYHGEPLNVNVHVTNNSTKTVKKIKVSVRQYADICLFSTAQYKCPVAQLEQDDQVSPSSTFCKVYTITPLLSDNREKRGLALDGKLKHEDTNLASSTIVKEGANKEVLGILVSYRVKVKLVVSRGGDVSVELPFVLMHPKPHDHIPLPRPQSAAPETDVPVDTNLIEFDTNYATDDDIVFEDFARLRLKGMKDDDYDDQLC

Variant | effect of a mutation on the interaction
T650A | disrupting interaction
